Measured values as given in US20220160939A1, “SELF-ASSEMBLING PEPTIDES AS BRONCHIAL OBSTRUCTION AGENTS” (3-D MATRIX, LTD., priority 2014, published 2022).
Where no end group is shown, it is not given here.

Key:
Type in all cases: physicochemical
[1] = Salt ionic strength plus pH adjustment: appearance and rheological properties; conditions: for appearance of peptide solutions: 0.9% NaCl (ionic strength: 0.15 M) at pH 3.4 adjusted with NaOH
Source text: In accordance with one or more embodiments, IEIK13 (SEQ ID NO:2), KLD12 (SEQ ID NO:3), and PuraMatrix® (SEQ ID NO:1) may be dissolved both in salt buffer such as NaCl and at an elevated pH level adjusted with alkali salt buffer such as NaOH to keep their salt ionic strength under their critical salt points as well as their pH level to about 2.5˜4.0, so that they may have stiffer properties. With respect to PuraMatrix® (SEQ ID NO:1), […] and IEIK13 (SEQ ID NO:2), the peptide solutions are still clear with 0.9% NaCl (ionic strength: 0.15 M) at pH 3.4 adjusted with NaOH. The rheological property of PuraMatrix® (SEQ ID NO:1) with 0.9% NaCl (ionic strength: 0.15 M) at pH 3.4 was stiffer than those of PuraMatrix® (SEQ ID NO:1) control and PuraMatrix® (SEQ ID NO:1) with only NaCl 0.9%. The effect of salt ionic strength and pH adjustment on the rheological properties of PuraMatrix® (SEQ ID NO:1) 2.5% solution are shown in FIG. 20. Frequency sweep tests were performed from 1 rad/sec to 10 rad/sec at 1 Pa and the storage modulus at 1 rad/sec was selected for data.

[2] = Rheological properties of ionic strength adjusted hydrogels after DMEM treatment for 10 min; conditions: 1% hydrogels
Method: (§1) Based on the results of the effect on the rheological properties of the peptide solutions after adjusting their ionic strength levels, the effect on the rheological properties of the peptide hydrogels after DMEM treatment for 10 min was evaluated. […] The results are shown in FIG. 15 for PuraMatrix® (SEQ ID NO:1) 1% hydrogels and in FIG. 16 for IEIK13 (SEQ ID NO:2) 1% hydrogels, both after DMEM treatment for 10 min. Frequency sweep tests were performed from 1 rad/sec to 10 rad/sec at 1 Pa and the storage modulus at 1 rad/sec was selected for data.
(§2) Based on the results of the effect on the rheological properties of the peptide solutions and hydrogels after adjusting their ionic strength levels with NaCl, the effect of various salts (KCl, MgCl2, and CaCl2) was also evaluated. The rheological property of PuraMatrix® (SEQ ID NO:1) solutions increases with ionic strength adjustment at 0.15 M of all the salts. Increases of the rheological property of PuraMatrix® (SEQ ID NO:1) solutions with various salts were not predominantly different. However, increases of the rheological property of PuraMatrix® (SEQ ID NO:1) solutions may vary depending on the salting out constant, K of each salt. Constant K is a constant in Cohen's equation: log S=B−KI, where S is solubility, B is idealized solubility, K is salting out constant, and I is ionic strength. With a higher value of constant K and ionic strength of salts, solubility of the peptide may decrease resulting in strong peptide self-assembly with increased hydrophobic effect and higher rheological properties of the peptide solution. The constant K of NaCl may be higher than the other salts. […] The results are shown in FIG. 17 for PuraMatrix® (SEQ ID NO:1) 1% solution before DMEM treatment, and in FIG. 18 for PuraMatrix® (SEQ ID NO:1) 1% hydrogels after DMEM treatment for 10 min Frequency sweep tests were performed from 1 rad/sec to 10 rad/sec at 1 Pa and the storage modulus at 1 rad/sec was selected for data.

[3] = Rheological properties of peptide solutions at adjusted salt ionic strength; conditions: for ionic strength up to which the rheological property of 1% solutions increases (decreases above): storage modulus at 1 rad/sec; for rheological property after adjusting ionic strength level with NaCl: NaCl to 0.7 M (PuraMatrix), 0.2 M (KLD12) or 0.02 M (IEIK13); for ionic strength up to which the rheological property of 1% solutions increases (decreases above) / rheological property after adjusting ionic strength level with NaCl: 1% solutions
Method: Based on the visual observation of the effect of salt ionic strength on the properties of the peptide solutions, the effect on the rheological properties of the peptide solutions after adjusting their ionic strength level with NaCl to 0.7 M (PuraMatrix® (SEQ ID NO:1)), 0.2 M (KLD12 (SEQ ID NO:3)) or 0.02 M (IEIK13 (SEQ ID NO:2)), which is closely below the critical ionic strength at which each peptide becomes cloudy, was evaluated. If the ionic strength levels with NaCl of peptide solutions are higher than 0.9 M (PuraMatrix® (SEQ ID NO:1)), 0.3 M (KLD12 (SEQ ID NO:3)) or 0.03 M (IEIK13 (SEQ ID NO:2)), the peptide solutions begin phase separation becoming cloudy and weak. The rheological property of PuraMatrix® (SEQ ID NO:1), KLD12 (SEQ ID NO:3) and IEIK13 (SEQ ID NO:2) solutions was higher after adjusting their ionic strength level with NaCl to 0.7 M (PuraMatrix® (SEQ ID NO:1)), 0.2 M (KLD12 (SEQ ID NO:3)) or 0.02 M (IEIK13 (SEQ ID NO:2)). The results are shown in FIG. 10 for KLD12 (SEQ ID NO:3) 1%, FIG. 11 for IEIK13 (SEQ ID NO:2) 1%, and FIG. 12 for PuraMatrix® (SEQ ID NO:1) 1%, respectively. Frequency sweep tests were performed from 1 rad/s to 10 rad/s at 1 Pa.
as §1, with “level with NaCl to 0.7 M (PuraMatrix® (SEQ ID NO:1)), 0.2 M (KLD12 (SEQ ID NO:3)) or 0.02 M (IEIK13 (SEQ ID NO:2)),” for “levels,”, “solution at various salt ionic strengths” for “hydrogels after DMEM treatment for 10 min”, “13” for “15”, “solutions” for “hydrogels”, “14” for “16”, “solutions.” for “hydrogels, both after DMEM treatment for 10 min.”
as §2

[4] = pH and appearance of 2.5% peptide solutions after adding 0.1 N NaOH
Method: To adjust the pH level of the peptide solutions by way of example, 0.1 N NaOH was added to 2 mL of 2.5% peptide solutions and their pH and appearance were measured.

[5] = 0.1N NaOH 150 μL/mL added in 2.5% solution, conc. 2.17%
[6] = 0.1N NaOH 200 μL/mL added in 2.5% solution, conc. 2.08%
[7] = 0.1N NaOH 250 μL/mL added in 2.5% solution, conc. 2.0%
[8] = 0.1N NaOH 275 μL/mL added in 2.5% solution, conc. 1.96%
[9] = 0.1N NaOH 300 μL/mL added in 2.5% solution, conc. 1.92%
[10] = NaOH volume and conc. not given
[11] = peptide solution pH 7.0, NaOH volume and conc. not given
[12] = 0.1N NaOH 350 μL/mL added in 2.5% solution, conc. 1.85%

Row | Substance | appearance of peptide solutions [1] | ionic strength above which the rheological property of hydrogels after DMEM treatment decreases ([2]; DMEM treatment for 10 min) | rheological property of hydrogels after DMEM treatment ([2]; ionic strength adjustment up to 0.025 M, DMEM 10 min) | ionic strength up to which the rheological property of 1% solutions increases (decreases above) [3] | ionic strength level with NaCl above which solutions begin phase separation becoming cloudy and weak [3] | rheological property after adjusting ionic strength level with NaCl [3] | Appearance [4, 5] | Appearance [4, 6] | Appearance [4, 7] | Appearance [4, 8] | Appearance [4, 9] | Appearance ([4]; 0.1N NaOH 400 μL/mL added in 2.5% solution, conc. 1.79%) | Peptide solution pH [4, 10] | Appearance [4, 11] | Appearance ([4]; 0.1N NaOH 225 μL/mL added in 2.5% solution, conc. 2.04%) | Appearance [4, 12] | rheological property versus control and versus only NaCl 0.9% ([1]; 2.5% solution, 0.9% NaCl (ionic strength: 0.15 M) at pH 3.4) | ionic strength up to which the rheological property of hydrogels after DMEM treatment increased ([2]; DMEM treatment for 10 min) | rheological property of solutions with ionic strength adjustment ([3]; 0.15 M ionic strength of all the salts (NaCl, KCl, MgCl2, CaCl2), 1% solution) | rheological property of solutions with NaCl versus KCl and CaCl2 ([3]; 0.15 M ionic strength, 1% solution)
1 | Ile-Glu-Ile-Lys-Ile-Glu-Ile-Lys-Ile-Glu-Ile-Lys-Ile [IEIK13] | still clear | above 0.03 M | did not significantly change | up to 0.03 M | > 0.03 M | higher | Clear, thick gel, stiffer gel | Clear, thick gel, stiffer gel | Clear, thick gel, stiffer gel | Clear, thick, stiffer gel | Slightly cloudy, brittle gel | Cloudy, phase-separated | 7.0 | Cloudy, phase-separated | – | – | – | – | – | –
2 | KLDLKLDLKLDL [KLD12] | still clear | – | – | – | > 0.3 M | higher | Clear, thick and stiffer gel | Clear, thick and stiffer gel | Slightly cloudy, brittle gel | – | – | – | 7.0 | Cloudy, phase-separated | Clear, thick and stiffer gel | Cloudy, phase-separated | – | – | – | –
3 | Arg-Ala-Asp-Ala-Arg-Ala-Asp-Ala-Arg-Ala-Asp-Ala-Arg-Ala-Asp-Ala [PuraMatrix ®] | still clear | above 0.7 M | – | up to 0.7 M | higher than 0.9 M | higher | Clear, thick, stiffer gel | Clear, thick, stiffer gel | Clear, thick, stiffer gel | Clear, thick, stiffer gel | Slightly cloudy, brittle gel | – | 7.0 | Cloudy, phase-separated | – | Cloudy, phase-separated | stiffer | up to 0.7 M | increases | slightly higher
